Earlier results as cited in patent publication US7186797B2, “Polypeptide conjugates with extended circulating half-lives” (Epix Pharmaceuticals, Inc., priority 2001, dated 2007).

B1: granulocyte colony stimulating factor: commercially important polypeptide-based drug currently in use (protein, UniProt P09919 31-207, looked up)
Granulocyte …: TPLGPASSLPQSFLLKCLEQVRKIQGDGAALQEKLVSECATYKLCHPEELVLLGHSLGIPWAPLSSCPSQALQLAGCLSQLHSGLFLYQGLLQALEGISPELGPTLDTLQLDVADFATTIWQQMEELGMAPALQPTQGAMPAFASAFQRRAGGVLVASHLQSFLEVSYRVLRHLAQP
B2: interferon γ: commercially important polypeptide-based drug currently in use (protein, UniProt P01579 24-161, looked up)
Interferon gamma: QDPYVKEAENLKKYFNAGHSDVADNGTLFLGILKNWKEESDRKIMQSQIVSFYFKLFKNFKDDQSIQKSVETIKEDMNVKFFNSNKKKRDDFEKLTNYSVTDLNVQRKAIHELIQVMAELSPAAKTGKRKRSQMLFRG

Conditions: unconjugated polypeptide drug, background statement

**Q.** With “tissue plasminogen activator: commercially important polypeptide-based drug currently in use” as the molecule, how does the t1/2 read?
**A.** 55 min

**Q.** Which t1/2 does the source give for relaxin here?
**A.** 30 min

**Q.** Which t1/2 does the source give for tumor necrosis factor here?
**A.** 18 min

**Q.** With “human growth hormone: commercially important polypeptide-based drug currently in use” as the molecule, how does the t1/2 read?
**A.** 30 min

**Q.** Which t1/2 does the source give for urokinase here?
**A.** 50 min

**Q.** For “granulocyte macrophage colony stimulating factor: commercially important polypeptide-based drug currently in use”, which t1/2 is on record?
**A.** 120 min

**Q.** For streptokinase, which t1/2 is on record?
**A.** 80 min

**Q.** For “Erythropoietin: commercially important polypeptide-based drug currently in use”, which t1/2 is on record?
**A.** 180 min

**Q.** Which t1/2 does the source give for B1 here?
**A.** 120 min

**Q.** Which t1/2 does the source give for B2 here?
**A.** 30 min
